Data as given in patent US20150368329A1 (ONCOMED PHARMACEUTICALS, published 2015).

How the values were obtained:
[1] = target: recombinant mouse VEGF165 (mouse) (UniProt Q00731); assay: SPR (Biacore 2000); biotinylated VEGF165 on streptavidin chip, antibody injected 100-0.78 nM
biotin-DLL4-hFc = target: T1, biotin-DLL4-hFc (UniProt Q9NR61 27-522, limits assumed, biotinylated); assay: bridging ELISA: the signal needs binding to both coated VEGF and biotin-DLL4-hFc (2 ug/ml); antibody concentration varied
T1 construct: not shown: human Fc ('hFc')
T1 sequence (Q9NR61 27-522 limits assumed): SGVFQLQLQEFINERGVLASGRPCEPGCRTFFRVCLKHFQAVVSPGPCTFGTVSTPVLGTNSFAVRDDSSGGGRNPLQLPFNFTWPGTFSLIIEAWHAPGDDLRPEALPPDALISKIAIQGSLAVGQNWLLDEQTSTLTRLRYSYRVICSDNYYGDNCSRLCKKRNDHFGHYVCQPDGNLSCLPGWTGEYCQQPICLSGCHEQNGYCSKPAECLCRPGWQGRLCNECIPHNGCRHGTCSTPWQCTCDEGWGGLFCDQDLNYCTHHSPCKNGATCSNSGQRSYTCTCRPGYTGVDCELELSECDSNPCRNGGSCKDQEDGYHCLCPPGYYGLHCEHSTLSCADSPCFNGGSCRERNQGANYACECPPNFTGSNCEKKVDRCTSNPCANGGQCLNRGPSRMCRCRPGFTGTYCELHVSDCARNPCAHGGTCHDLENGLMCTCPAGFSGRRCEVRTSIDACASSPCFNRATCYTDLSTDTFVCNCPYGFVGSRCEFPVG
Description: (§1) FIG. 5. Bispecific antibody ELISA. Bispecific antibodies 219R45-MB-21M18, 219R45-MB-21R79, 219R45-MB-21R75, and 219R45-MB-21R83 were diluted in blocking buffer (lx PBS, 0.1% gelatin, 0.1% Polysorbate-20, pH 7.4) containing 2 μg/ml biotin-DLL4-hFc. 219R45-MB-21M18 (open circles), 219R45-MB-21R79 (open squares), 219R45-MB-21R75 (open triangles), and 219R45-MB-21R83 (open diamonds) in comparison to a reference anti-VEGF/anti-DLL4 bispecific antibody (solid circles) is shown. The antibodies were serially diluted 3-fold from 500 ng/ml to 0.008 ng/ml. The antibody samples were incubated for 2 hours in blocking buffer containing the biotin-DLL4-hFc. After incubation, the antibody samples were transferred to a VEGF-coated assay plate (100 ul/well) and incubated for 2 hours. Streptavidin-HRP was added to each well and incubated for 1 hr. TMB substrate was added to the wells with a 10 minute color development and the reaction was stopped with 2M sulfuric acid. Absorbance was read at 450-650 nm and the data analyzed using the 4-parameter fit within the Softmax Pro analysis program.
(§2) VEGF (ATGEN, South Korea) was coated onto Nunc maxisorb plates at 2ug/ml (100 μl/well) and incubated overnight at 2-8° C. Bispecific antibodies 219R45-MB-21M18, 219R45-MB-21R79, 219R45-MB-21R75, and 219R45-MB-21RS3 were diluted in blocking buffer (1×PBS, 0.1% gelatin, 0.1% Polysorbate-20, pH 7.4) containing 2 μg/ml biotin-DLL4-hFc. The antibodies were serially diluted 3-fold from 500 ng/ml to 0.008 ng/ml. The antibody samples were incubated for 2 hours in blocking buffer containing the biotin-DLL4-hFc. After incubation, the antibody samples were transferred to the VEGF-coated assay plate (100 μl/well) and incubated for 2 hours. Streptavidin-HRP (Jackson ImmunoResearch, West Grove, Pa.) was added to each well and incubated for 1 hr. TMB substrate was added to the wells with a 10 minute color development and the reaction was stopped with 2M sulfuric acid. Absorbance was read at 450-650 nm and the data analyzed using the 4-parameter fit within the Softmax Pro analysis program (Molecular Devices, Sunnyvale, Calif.).

[2] = target: VEGF (ATGEN, South Korea) coated on ELISA plates (UniProt P15692-4 27-191, limits assumed); assay: as above
Chain of VEGF (ATGEN, South Korea) coated on ELISA plates (P15692 other isoform, or with tags, fused parts or gaps limits assumed): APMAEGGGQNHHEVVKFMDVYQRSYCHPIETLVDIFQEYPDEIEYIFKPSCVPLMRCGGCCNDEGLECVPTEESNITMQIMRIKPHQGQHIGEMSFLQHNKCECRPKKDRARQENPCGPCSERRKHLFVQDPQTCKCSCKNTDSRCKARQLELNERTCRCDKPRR
Description: as §1, §2

Binder | Kd [1] [µM] | EC50 (read off the curve) (biotin-DLL4-hFc) [ng/mL] | EC50 (read off the curve) [2] [ng/mL]
anti-VEGF antibody 219R45 (parental, IgG format) (antibody, V domains shown) VH: QVQLVQSGAEVKKPGASVKVSCKASGYTFTNYWMHWVRQAPGQGLEWMGDINPSNGRTSYKEKFKRRVTLSVDKSSSTAYMELSSLRSEDTAVYFCTIHYDDKYYPLMDYWGQGTLVTVSS VL: DIVMTQSPDSLAVSLGERATISCRASESVDNYGISFMKWFQQKPGQPPKLLIYAASNQGSGVPDRFSGSGSGTDFTLTISSLQAEDVAVYYCQQSKEVPWTFGGGTKVEIKR | 0.0229 |  | 
anti-VEGF/anti-DLL4 bispecific antibody 219R45-MB-21M18 (bispecific antibody, human IgG2) heavy 1: QVQLVQSGAEVKKPGASVKVSCKASGYTFTNYWMHWVRQAPGQGLEWMGDINPSNGRTSYKEKFKRRVTLSVDKSSSTAYMELSSLRSEDTAVYFCTIHYDDKYYPLMDYWGQGTLVTVSSASTKGPSVFPLAPCSRSTSESTAALGCLVKDYFPEPVTVSWNSGALTSGVHTFPAVLQSSGLYSLSSVVTVPSSNFGTQTYTCNVDHKPSNTKVDKTVERKCCVECPPCPAPPVAGPSVFLFPPKPKDTLMISRTPEVTCVVVDVSHEDPEVQFNWYVDGVEVHNAKTKPREEQFNSTFRVVSVLTVVHQDWLNGKEYKCKVSNKGLPAPIEKTISKTKGQPREPQVYTLPPSREKMTKNQVSLTCLVKGFYPSDIAVEWESNGQPENNYKTTPPMLKSDGSFFLYSKLTVDKSRWQQGNVFSCSVMHEALHNHYTQKSLSLSPGK heavy 2: QVQLVQSGAEVKKPGASVKISCKASGYSFTAYYIHWVKQAPGQGLEWIGYISSYNGATNYNQKFKGRVTFTTDTSTSTAYMELRSLRSDDTAVYYCARDYDYDVGMDYWGQGTLVTVSSASTKGPSVFPLAPCSRSTSESTAALGCLVKDYFPEPVTVSWNSGALTSGVHTFPAVLQSSGLYSLSSVVTVPSSNFGTQTYTCNVDHKPSNTKVDKTVERKCCVECPPCPAPPVAGPSVFLFPPKPKDTLMISRTPEVTCVVVDVSHEDPEVQFNWYVDGVEVHNAKTKPREEQFNSTFRVVSVLTVVHQDWLNGKEYKCKVSNKGLPAPIEKTISKTKGQPREPQVYTLPPSREEMTKNQVSLTCLVEGFYPSDIAVEWESNGQPENNYKTTPPMLDSDGSFFLYSELTVDKSRWQQGNVFSCSVMHEALHNHYTQKSLSLSPGK light: DIVMTQSPDSLAVSLGERATISCRASESVDNYGISFMKWFQQKPGQPPKLLIYAASNQGSGVPDRFSGSGSGTDFTLTISSLQAEDVAVYYCQQSKEVPWTFGGGTKVEIKRTVAAPSVIFPPSDEQLKSGTASVVCLLNNFYPREAKVQWKVDNALQSGNSQESVTEQDSKDSTYSLSSTLTLSKADYEKHKVYACEVTHQGLSSPVTKSFNRGEC | 0.0255 | ~4 | ~4
anti-VEGF/anti-DLL4 bispecific antibody 219R45-MB-21R79 (bispecific antibody, human IgG2) heavy 1: QVQLVQSGAEVKKPGASVKVSCKASGYTFTNYWMHWVRQAPGQGLEWMGDINPSNGRTSYKEKFKRRVTLSVDKSSSTAYMELSSLRSEDTAVYFCTIHYDDKYYPLMDYWGQGTLVTVSSASTKGPSVFPLAPCSRSTSESTAALGCLVKDYFPEPVTVSWNSGALTSGVHTFPAVLQSSGLYSLSSVVTVPSSNFGTQTYTCNVDHKPSNTKVDKTVERKCCVECPPCPAPPVAGPSVFLFPPKPKDTLMISRTPEVTCVVVDVSHEDPEVQFNWYVDGVEVHNAKTKPREEQFNSTFRVVSVLTVVHQDWLNGKEYKCKVSNKGLPAPIEKTISKTKGQPREPQVYTLPPSREKMTKNQVSLTCLVKGFYPSDIAVEWESNGQPENNYKTTPPMLKSDGSFFLYSKLTVDKSRWQQGNVFSCSVMHEALHNHYTQKSLSLSPGK heavy 2: QVQLVQSGAEVKKPGASVKISCKASGYSFTAYYIHWVKQAPGQGLEWIGYIANYNRATNYNQKFKGRVTFTTDTSTSTAYMELRSLRSDDTAVYYCARDYDYDVGMDYWGQGTLVTVSSASTKGPSVFPLAPCSRSTSESTAALGCLVKDYFPEPVTVSWNSGALTSGVHTFPAVLQSSGLYSLSSVVTVPSSNFGTQTYTCNVDHKPSNTKVDKTVERKCCVECPPCPAPPVAGPSVFLFPPKPKDTLMISRTPEVTCVVVDVSHEDPEVQFNWYVDGVEVHNAKTKPREEQFNSTFRVVSVLTVVHQDWLNGKEYKCKVSNKGLPAPIEKTISKTKGQPREPQVYTLPPSREEMTKNQVSLTCLVEGFYPSDIAVEWESNGQPENNYKTTPPMLDSDGSFFLYSELTVDKSRWQQGNVFSCSVMHEALHNHYTQKSLSLSPGK light: DIVMTQSPDSLAVSLGERATISCRASESVDNYGISFMKWFQQKPGQPPKLLIYAASNQGSGVPDRFSGSGSGTDFTLTISSLQAEDVAVYYCQQSKEVPWTFGGGTKVEIKRTVAAPSVIFPPSDEQLKSGTASVVCLLNNFYPREAKVQWKVDNALQSGNSQESVTEQDSKDSTYSLSSTLTLSKADYEKHKVYACEVTHQGLSSPVTKSFNRGEC | 0.0125 |  | 
anti-VEGF/anti-DLL4 bispecific antibody 219R45-MB-21R75 (bispecific antibody, human IgG2, Monovalent/bispecific IgG2 heterodimer) heavy 1: QVQLVQSGAEVKKPGASVKVSCKASGYTFTNYWMHWVRQAPGQGLEWMGDINPSNGRTSYKEKFKRRVTLSVDKSSSTAYMELSSLRSEDTAVYFCTIHYDDKYYPLMDYWGQGTLVTVSSASTKGPSVFPLAPCSRSTSESTAALGCLVKDYFPEPVTVSWNSGALTSGVHTFPAVLQSSGLYSLSSVVTVPSSNFGTQTYTCNVDHKPSNTKVDKTVERKCCVECPPCPAPPVAGPSVFLFPPKPKDTLMISRTPEVTCVVVDVSHEDPEVQFNWYVDGVEVHNAKTKPREEQFNSTFRVVSVLTVVHQDWLNGKEYKCKVSNKGLPAPIEKTISKTKGQPREPQVYTLPPSREKMTKNQVSLTCLVKGFYPSDIAVEWESNGQPENNYKTTPPMLKSDGSFFLYSKLTVDKSRWQQGNVFSCSVMHEALHNHYTQKSLSLSPGK heavy 2: QVQLVQSGAEVKKPGASVKISCKASGYSFTAYYIHWVKQAPGQGLEWIGYIAGYKDATNYNQKFKGRVTFTTDTSTSTAYMELRSLRSDDTAVYYCARDYDYDVGMDYWGQGTLVTVSSASTKGPSVFPLAPCSRSTSESTAALGCLVKDYFPEPVTVSWNSGALTSGVHTFPAVLQSSGLYSLSSVVTVPSSNFGTQTYTCNVDHKPSNTKVDKTVERKCCVECPPCPAPPVAGPSVFLFPPKPKDTLMISRTPEVTCVVVDVSHEDPEVQFNWYVDGVEVHNAKTKPREEQFNSTFRVVSVLTVVHQDWLNGKEYKCKVSNKGLPAPIEKTISKTKGQPREPQVYTLPPSREEMTKNQVSLTCLVEGFYPSDIAVEWESNGQPENNYKTTPPMLDSDGSFFLYSELTVDKSRWQQGNVFSCSVMHEALHNHYTQKSLSLSPGK light: DIVMTQSPDSLAVSLGERATISCRASESVDNYGISFMKWFQQKPGQPPKLLIYAASNQGSGVPDRFSGSGSGTDFTLTISSLQAEDVAVYYCQQSKEVPWTFGGGTKVEIKRTVAAPSVIFPPSDEQLKSGTASVVCLLNNFYPREAKVQWKVDNALQSGNSQESVTEQDSKDSTYSLSSTLTLSKADYEKHKVYACEVTHQGLSSPVTKSFNRGEC |  | ~0.7 | ~0.7
